Test [1] deals with Drosophila melanogaster KCC variant B (Drosophila melanogaster). In words: SEC.
For test [2], the target named is Hydra vulgaris KCC (Hydra vulgaris). In words: SEC-MALLS.
Test [3] shares this target. In words: SEC.

“Drosophila melanogaster KCC variant B (natural protein)”: the stoichiometry N in test [1] is 2.
Regarding Hydra vulgaris KCC (natural protein), the stoichiometry N in test [2] and in test [3] was 2 in each case.

The record behind these values is doi:10.1101/2022.05.12.491617.
